What all share (assay): native gel or EMSA; single recombinant Kai proteins or two of them together, 16 h at 30 °C in phosphorylation assay buffer (0.2 µg/µl dephosphorylated Strep-KaiC3, 0.1 µg/µl of the others); 4-16% clear native PAGE at 4 °C; Coomassie or anti-His blot
Data set [1] addresses Strep-KaiC3 (Synechocystis sp. PCC 6803).
The target of data set [2] is KaiB3 (recombinant, GST-tag removed) (Synechocystis sp. PCC 6803).
The target of data set [3] is KaiA3-His6 (Synechocystis sp. PCC 6803).
Data set [4] deals with the molecule itself.

The values below come from paper PMC11372060, “Two KaiABC systems control circadian oscillations in one cyanobacterium” (Nature Communications, 2024).

One may read the stoichiometry N as the number of molecules, sites or subunits per partner or assembly.

As for Strep-KaiC3 (natural protein), the stoichiometry N in data set [1] was determined as 6. Take “KaiB3 (recombinant, GST-tag removed) (natural protein)”: the stoichiometry N in data set [2] was 4.

For KaiA3-His6 (natural protein), in data set [3], the stoichiometry N was more than 2.

B1: Synechococcus KaiA (recombinant, GST-tag removed) (natural protein, Synechococcus elongatus PCC 7942, UniProt Q79PF6 1-284, looked up)
chain: MLSQIAICIWVESTAILQDCQRALSADRYQLQVCESGEMLLEYAQTHRDQIDCLILVAANPSFRAVVQQLCFEGVVVPAIVVGDRDSEDPDEPAKEQLYHSAELHLGIHQLEQLPYQVDAALAEFLRLAPVETMADHIMLMGANHDPELSSQQRDLAQRLQERLGYLGVYYKRDPDRFLRNLPAYESQKLHQAMQTSYREIVLSYFSPNSNLNQSIDNFVNMAFFADVPVTKVVEIHMELMDEFAKKLRVEGRSEDILLDYRLTLIDVIAHLCEMYRRSIPRET
notes: KaiA of Synechococcus elongatus PCC 7942; plasmid provided by T. Kondo; Migrates at about 60 kDa on clear native PAGE (dimer); source: E. coli BL21(DE3), purified (glutathione-agarose 4B, PreScission cleavage); not shown: GST, N-terminal, cleaved
In the case of B1, the “stoichiometry N” value in data set [4] stood at 2.
